Experimental data from the RNAGym collection of RNA variant scans (doi:10.1073/pnas.2313332121).

B1: TPR t1 (parent)
chain: GACCAAUCUGCCCUCAGAGCUCGAGAACAUCUUCGGAUGCAGAGGAGGCAGGCUUCGGUGGCGCGAUAGCGCCAACGUCCUCAACCUCCAAUGCAUCCCACCACAUGAUGAUGCCUGAAGAGCCUUGGUUUUUUG

Variants of: B1
Experiment: polymerase ribozyme fitness, log enrichment relative to wild type (log ratio); higher = more active; in vitro selection for triplet polymerase activity
Method in brief: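 A heterodimeric triplet polymerase ribozyme had each of its subunits mutagenized by PCR into a library, which was transcribed. One round of in vitro selection, done in triplicate, annealed each library with a biotinylated primer, its partner subunit and triplets, then incubated it frozen at −7 °C before gel excision of extended constructs, streptavidin-bead capture and RT-PCR. Fitness is the logarithm of genotype enrichment relative to wild-type enrichment, based on Illumina sequencing of inputs and outputs and inverse-variance-weighted replicate averages. A base-2 logarithm is used, and genotypes were kept only with ≥10 input reads and ≥1 read per output.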

Compared with C28U G63C, A5U G60C U96A C101A A119U is higher in “polymerase ribozyme fitness (log ratio)” value: -3.08 for the first, -2.53 for the second.

Going from C49A G71U G120U to A84U A90U, the “polymerase ribozyme fitness (log ratio)” value falls from 0.255 to -1.49.

First: G128C U130C
Second: U92C A118U
The “polymerase ribozyme fitness (log ratio)” value of the first is lower: -1.33 for the first, -0.718 for the second.

Compared with A83U G113C G120U U132A, C72G C97A is lower in “polymerase ribozyme fitness (log ratio)” value: -4.48 for the first, -5.43 for the second.

Going from C56A U87G G113U to C13G C20U C64U C104A A111U U130G, the “polymerase ribozyme fitness (log ratio)” value falls from -3.92 to -5.67.

Compared with A6C C76G U81C C85U C99U, G69A C86A C99U G110C is lower in “polymerase ribozyme fitness (log ratio)” value: -5.11 for the first, -6.84 for the second.

Going from A50U C72U to U30C C62U U78A U106C A121U, the “polymerase ribozyme fitness (log ratio)” value falls from -1.18 to -3.04.

Compared with C31U G71U G120U, C72U G117A U133A is higher in “polymerase ribozyme fitness (log ratio)” value: -4.2 for the first, -1.1 for the second.

Compared with G61A U116G G128C, G45A A46G A50C C89A is higher in “polymerase ribozyme fitness (log ratio)” value: -4.66 for the first, -3.72 for the second.

Going from G48A C82U U92A G110U to C15A G120C U129A, the “polymerase ribozyme fitness (log ratio)” value rises from -6.7 to -1.24.

Compared with G48A U87A G120C C124G, U9G G10C C11A C15A A37G U78C C85U A95U C123U is lower in “polymerase ribozyme fitness (log ratio)” value: 0.521 for the first, -3.97 for the second.

First: G42A C85G G93A
Second: G44C G61A A95U G110A
The “polymerase ribozyme fitness (log ratio)” value of the first is lower: -3.19 for the first, -1.72 for the second.

Going from C22A C73A G120A to C80U A84U C89U A119G C123A, the “polymerase ribozyme fitness (log ratio)” value rises from -4.58 to 0.318.

Compared with G47A C70A C101U, C40A U106A C124A is higher in “polymerase ribozyme fitness (log ratio)” value: -1.81 for the first, 1.38 for the second.

Compared with G44U G52A, C49A G51U C56A is lower in “polymerase ribozyme fitness (log ratio)” value: -0.705 for the first, -2.24 for the second.

First: C15G C56U A83U C115G C123A
Second: G10U A24G G58C C79U
The “polymerase ribozyme fitness (log ratio)” value of the first is lower: -4.36 for the first, -2.27 for the second.

Going from A2G U21A G69U G71C to A29U A41C A119G C123G, the “polymerase ribozyme fitness (log ratio)” value rises from -4.01 to -1.43.

Going from C73G C98A to U7G A27G G48C C86G, the “polymerase ribozyme fitness (log ratio)” value rises from -6.22 to -0.81.

Compared with G45U G63C, G57A G69A C76G is lower in “polymerase ribozyme fitness (log ratio)” value: -2.21 for the first, -3.53 for the second.

Compared with A2U A37G G61A U87G, G36A A66C G120U is higher in “polymerase ribozyme fitness (log ratio)” value: -2.89 for the first, -1.74 for the second.

A18U C73G A100U G113A G128A and U59A C102U A103C are within 0.2 log units of each other in “polymerase ribozyme fitness (log ratio)” value: -5.47 for the first, -5.53 for the second.

Going from C13U C98A to G71U U81G, the “polymerase ribozyme fitness (log ratio)” value rises from -4.9 to -4.34.

First: C40G G44C C72A U78G C94G A121C G128U
Second: C11U C114U
The “polymerase ribozyme fitness (log ratio)” value of the first is lower: -6.15 for the first, -1.57 for the second.

First: G10U A46C A74U G127C
Second: G44A G60U G117C
The “polymerase ribozyme fitness (log ratio)” value of the first is higher: -2.03 for the first, -5.36 for the second.

First: G60C G61A U96A
Second: C11U G36U G117A C124U
The “polymerase ribozyme fitness (log ratio)” value of the first is higher: -2.15 for the first, -5.7 for the second.

Going from A2U A108G to G36C U55A U131A, the “polymerase ribozyme fitness (log ratio)” value rises from -3.51 to -0.527.

First: U7G U55A G58A G63U C98A A105U G120A
Second: C53A G127U
The “polymerase ribozyme fitness (log ratio)” value of the first is lower: -5.94 for the first, -0.16 for the second.

First: U9G C34A
Second: C8U A27U C76G U96G
The “polymerase ribozyme fitness (log ratio)” value of the first is higher: -1.59 for the first, -3.38 for the second.

Going from C8G A27U C53U A111C C114G to C8U C62U C64A, the “polymerase ribozyme fitness (log ratio)” value rises from -6.88 to -5.43.

Compared with G48U C56U C70U A84G A91U, C28U C62A is higher in “polymerase ribozyme fitness (log ratio)” value: -4.84 for the first, -2.73 for the second.

Compared with U9G G17A A18U A46U A84G U87A U112C G127C U134A, A2C C13A G36C G120U is higher in “polymerase ribozyme fitness (log ratio)” value: -2.66 for the first, -1.59 for the second.

First: C115A A119U G122U
Second: C40A C72G A108G
The “polymerase ribozyme fitness (log ratio)” value of the first is higher: -0.198 for the first, -4.46 for the second.

Going from G61C A74C C85U to C11G C85G, the “polymerase ribozyme fitness (log ratio)” value rises from -5.35 to -1.55.

Compared with G42C C49U C79A C102G G120A, A50U G60U is higher in “polymerase ribozyme fitness (log ratio)” value: -7.51 for the first, -1.4 for the second.

First: C22A G36A C56U
Second: C11U A43U C56U C114G G128C
The “polymerase ribozyme fitness (log ratio)” value of the first is lower: -5.8 for the first, -5.28 for the second.

Compared with U106A C124A, C85U G113U is lower in “polymerase ribozyme fitness (log ratio)” value: 1.81 for the first, -3.63 for the second.

Compared with G42C G57C A66C, U96G C98U is higher in “polymerase ribozyme fitness (log ratio)” value: -4.36 for the first, -3.02 for the second.

G35C C98A A103C C123U and C20U A83G C101A G117U are within 0.2 log units of each other in “polymerase ribozyme fitness (log ratio)” value: -5.49 for the first, -5.42 for the second.

Going from G17C A46G U55C to A5G G57A G69C, the “polymerase ribozyme fitness (log ratio)” value rises from -5.15 to -1.65.

Compared with C49U G69C, U9C G10A A37U is higher in “polymerase ribozyme fitness (log ratio)” value: -1.79 for the first, -0.108 for the second.

First: C13A C53A G120U U132C
Second: G36C C56G C72U
The “polymerase ribozyme fitness (log ratio)” value of the first is higher: -0.539 for the first, -2.79 for the second.

First: A16U C62G C123A
Second: G113U G122A
The “polymerase ribozyme fitness (log ratio)” value of the first is lower: -3 for the first, -2.45 for the second.
